B1: recombinant Can f 4 (protein, not shown: small tags and cut ends)
chain: QLPLPNVLTQVSGPWKTLYISSNNLDKIGDNGPFRIYMRGINVDIPRLKMSFNFYVKVDGECVENSVGASIGRDNLIKGEYNGGNYFRIIDMTPNALIGYDVNVDSKGKITKVALLMGRGAHVNEEDIAKFKKLSREKGIPEENIIYLGDTDNCPNHE
modifications: N-terminal Met; C-terminal His6 tag

Columns and labels:
[1] = molecular target: recombinant Can f 4 (dog); assay: experimental rCan f 4 ImmunoCAP
[2] = molecular target: IgE of Bos d 23k-reactive serum A; assay: ImmunoCAP IgE inhibition; serum preincubated with 100 µg/mL rCan f 4, Bos d 23k immobilized
[3] = molecular target: IgE of Bos d 23k-reactive serum B; assay: as above
[4] = molecular target: IgE of Bos d 23k-reactive serum C; assay: as above

| Molecule | allergen specific IgE antibody [1] | percent inhibition of IgE binding to Bos d 23k [2] | percent inhibition of IgE binding to Bos d 23k [3] | percent inhibition of IgE binding to Bos d 23k [4] |
| --- | --- | --- | --- | --- |
| myeloma IgE (antibody) | 0.023 kUA/L |  |  |  |
| B1 |  | > 96% | > 96% | > 96% |

From patent US20120076826A1
